Data published in patent US20120219562A1 (AbbVie / Abbott, published 2012).

Molecular target: T1, human interleukin 12 (human, UniProt P29459 23-219; P29460 23-328)
T1 construct: heterodimer of p35 and p40 linked by a disulfide bridge; also called hIL-12; IL-12
T1 sequence (looked up) 1: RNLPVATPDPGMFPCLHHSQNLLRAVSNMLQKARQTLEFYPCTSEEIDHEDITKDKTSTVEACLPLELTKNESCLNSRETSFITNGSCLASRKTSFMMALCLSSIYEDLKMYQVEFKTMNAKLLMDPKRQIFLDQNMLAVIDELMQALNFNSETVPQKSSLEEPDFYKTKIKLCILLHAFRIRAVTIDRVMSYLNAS
T1 sequence (looked up) 2: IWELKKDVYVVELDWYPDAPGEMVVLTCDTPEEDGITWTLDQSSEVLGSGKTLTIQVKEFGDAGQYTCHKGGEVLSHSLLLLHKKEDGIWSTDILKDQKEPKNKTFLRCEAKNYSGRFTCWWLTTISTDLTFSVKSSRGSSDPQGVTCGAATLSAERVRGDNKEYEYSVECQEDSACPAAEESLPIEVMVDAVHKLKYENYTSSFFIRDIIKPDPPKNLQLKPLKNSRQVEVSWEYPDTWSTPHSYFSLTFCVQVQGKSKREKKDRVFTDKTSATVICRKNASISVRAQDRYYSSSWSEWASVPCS
Assay: SPR (BIAcore)

B1: M2 A2 (antibody, V domains shown)
VH: QVQLVQSGGGVVQPGRSLRLSCAASGFTFSSYGMHWVRQAPGKGLEWVAFIRYDGSNKYYADSVKGRFTISRDNSKNTLYLQMKSLRAEDTAVYYCKTHGSHDNWGQGTMVTVSS
VL: SYVLTQPPSVSGTPGQRVTISCSGGRSNIGSNTVKWYQQLPGTAPKLLIYGNDQRPSGVPDRFSGSKSGTSASLAITGVQAEDEADYYCQSYDRGIHGSRVFGTGTKVTVLG
  koff: 0.04 s⁻¹

B2: M2 B6 (antibody, V domains shown)
VH: QVQLVQSGGGVVQPGRSLRLSCAASGFTFSSYGMHWVRQAPGKGLEWVAFIRYDGSNKYYADSVKGRFTISRDNSKNTLYLQMKSLRAEDTAVYYCKTHGSHDNWGQGTMVTVSS
VL: SYVLTQPPSVSGTPGQRVTISCSGGRSNIGSNTVKWYQQLPGTAPKLLIYGNDQRPSGVPDRFSGSKSGTSASLAITGVQAEDEADYYCQSYDRGLTASRVFGTGTKVTVL
  koff: 0.0281 s⁻¹

B3: M2 B3 (antibody, V domains shown)
VH: QVQLVQSGGGVVQPGRSLRLSCAASGFTFSSYGMHWVRQAPGKGLEWVAFIRYDGSNKYYADSVKGRFTISRDNSKNTLYLQMKSLRAEDTAVYYCKTHGSHDNWGQGTMVTVSS
VL: SYVLTQPPSVSGTPGQRVTISCSGGRSNIGSNTVKWYQQLPGTAPKLLIYGNDQRPSGVPDRFSGSKSGTSASLAITGVQAEDEADYYCQSYDIGMTGSRVFGTGTKVTVLG
  koff: 0.046 s⁻¹

B4: M2 B5 (antibody, V domains shown)
VH: QVQLVQSGGGVVQPGRSLRLSCAASGFTFSSYGMHWVRQAPGKGLEWVAFIRYDGSNKYYADSVKGRFTISRDNSKNTLYLQMKSLRAEDTAVYYCKTHGSHDNWGQGTMVTVSS
VL: SYVLTQPPSVSGTPGQRVTISCSGGRSNIGSNTVKWYQQLPGTAPKLLIYGNDQRPSGVPDRFSGSKSGTSASLAITGVQAEDEADYYCQSYDSGVTGSRVFGTGTKVTVLG
  koff: 0.00838 s⁻¹

B5: M2 D2 (antibody, V domains shown)
VH: QVQLVQSGGGVVQPGRSLRLSCAASGFTFSSYGMHWVRQAPGKGLEWVAFIRYDGSNKYYADSVKGRFTISRDNSKNTLYLQMKSLRAEDTAVYYCKTHGSHDNWGQGTMVTVSS
VL: SYVLTQPPSVSGTPGQRVTISCSGGRSNIGSNTVKWYQQLPGTAPKLLIYGNDQRPSGVPDRFSGSKSGTSASLAITGVQAEDEADYYCQSYDIRSTGSRVFGTGTKVTVLG
  koff: 0.0385 s⁻¹

B6: M2 D1 (antibody, V domains shown)
VH: QVQLVQSGGGVVQPGRSLRLSCAASGFTFSSYGMHWVRQAPGKGLEWVAFIRYDGSNKYYADSVKGRFTISRDNSKNTLYLQMKSLRAEDTAVYYCKTHGSHDNWGQGTMVTVSS
VL: SYVLTQPPSVSGTPGQRVTISCSGGRSNIGSNTVKWYQQLPGTAPKLLIYGNDQRPSGVPDRFSGSKSGTSASLAITGVQAEDEADYYCQSYDIRFTGSRVFGTGTKVTVLG
  koff: 0.0371 s⁻¹

B7: M2 A5 (antibody, V domains shown)
VH: QVQLVQSGGGVVQPGRSLRLSCAASGFTFSSYGMHWVRQAPGKGLEWVAFIRYDGSNKYYADSVKGRFTISRDNSKNTLYLQMKSLRAEDTAVYYCKTHGSHDNWGQGTMVTVSS
VL: SYVLTQPPSVSGTPGQRVTISCSGGRSNIGSNTVKWYQQLPGTAPKLLIYGNDQRPSGVPDRFSGSKSGTSASLAITGVQAEDEADYYCQSYDIGSTGSRVFGTGTKVTVLG
  koff: 0.0401 s⁻¹

B8: M2 C5 (antibody, V domains shown)
VH: QVQLVQSGGGVVQPGRSLRLSCAASGFTFSSYGMHWVRQAPGKGLEWVAFIRYDGSNKYYADSVKGRFTISRDNSKNTLYLQMKSLRAEDTAVYYCKTHGSHDNWGQGTMVTVSS
VL: SYVLTQPPSVSGTPGQRVTISCSGGRSNIGSNTVKWYQQLPGTAPKLLIYGNDQRPSGVPDRFSGSKSGTSASLAITGVQAEDEADYYCQSYDTALTGSRVFGTGTKVTVLG
  koff: 0.0471 s⁻¹

B9: M2 B1 (antibody, V domains shown)
VH: QVQLVQSGGGVVQPGRSLRLSCAASGFTFSSYGMHWVRQAPGKGLEWVAFIRYDGSNKYYADSVKGRFTISRDNSKNTLYLQMKSLRAEDTAVYYCKTHGSHDNWGQGTMVTVSS
VL: SYVLTQPPSVSGTPGQRVTISCSGGRSNIGSNTVKWYQQLPGTAPKLLIYGNDQRPSGVPDRFSGSKSGTSASLAITGVQAEDEADYYCQSYDSGLTGSRVFGTGTKVTVLG
  koff: 0.00797 s⁻¹
